{"source": "patent US11091546B2", "about": "“Optimized PNE-based chimeric receptor T cell switches and uses thereof” (The Scripps Research Institute, priority 2015, dated 2021)", "molecules": {"B1": {"name": "hP67.6 HCNT: anti-CD33 hP67.6 Fab, GCN4 on heavy chain N-terminus, rigid linker SEQ ID 45 (SEQ ID 231 & 220) (protein)", "light": "DIQLTQSPSTLSASVGDRVTITCRASESLDNYGIRFLTWFQQKPGKAPKLLMYAASNQGSGVPSRFSGSGSGTEFTLTISSLQPDDFATYYCQQTKEVPWSFGQGTKVEVKRTVAAPSVFIFPPSDEQLKSGTASVVCLLNNFYPREAKVQWKVDNALQSGNSQESVTEQDSKDSTYSLSSTLTLSKADYEKHKVYACEVTHQGLSSPVTKSFNRGEC", "heavy": "NYHLENEVARLKKLLVGEAAAKEAAAKAEVQLVQSGAEVKKPGSSVKVSCKASGYTITDSNIHWVRQAPGQSLEWIGYIYPYNGGTDYNQKFKNRATLTVDNPTNTAYMELSSLRSEDTAFYYCVNGNPWLAYWGQGTLVTVSSARTKGPSVFPLAPSSKSTSGGTAALGCLVKDYFPEPVTVSWNSGALTSGVHTFPAVLQSSGLYSLSSVVTVPSSSLGTQTYICNVNHKPSNTKVDKKVEPKSC", "modifications": "GCN4 on heavy chain N-terminus; Made in lab - CD33 (hP67.6) LCWT; Made in Lab - CD33 (hP67.6) HCNT1"}}, "key": {"RS4;11 (CD19 positive)": {"test_system": "RS4;11 (CD19 positive)", "type": "cell-based, human", "method": "Activity was assessed against NALM-6 (CD19^+), RS4;11 (CD19^+), or RPMI-8226 (CD19^−) (Table 2). The activity of the IgG (FcNull) switch was assessed against RS4;11 (CD19^+), or K562 (CD19^−) (Table 2). The activity of the C-terminal switch was assessed against RS4;11 (CD19^+), or K562 (CD19^−) (Table 4).\n(§1) sCAR-T cells were co-cultured (96-well plate round bottom; 20-24h; 37° C.; 5% CO2) with RS4;11 (CD19^+) or K562 (CD19^−) cells at a ratio of 10 sCAR-T cells to 1 RS4;11/K562 cell (110,000 cells in total) in 100 uL of RPMI-1640 supplemented with 5% heat inactivated fetal calf serum (Thermo), 1% penicillin-streptomycin (Gibco), 1% L-Glutamine (Gibco), 1 mM sodium pyruvate (Gibco) and 1% non-essential amino acids (Gibco). After 24 hours, each plate was centrifuged at 400×g for 5 minutes at 4° C. To measure target cell lysis, the intracellular protein lactate dehydrogenase (LDH) was measured in the cytotoxicity assay supernatants from the co-cultured cells using the CytoTox 96® Non-Radioactive Cytotoxicity Assay kit (Promega). To measure the effector responses of the sCART cells in vitro, cytokine levels were measured in the cytotoxicity assay supernatants using the Cytometric Bead Array (CBA) Human Th1/Th2 Cytokine Kit II (BD). […]\nThe GCN4 CAR design was therefore modified to contain the CD8 hinge region (used in CART-19), which has an extracellular CAR domain of approximately 80 Å, and an IgG4 hinge with an extracellular CAR domain of approximately 15-30 Å. An additional construct was developed where a mutation was introduced into the IgG4 hinge that allows for spontaneous disulphide bridge formation between receptor molecules (IgG4m). […] Briefly, activated PBMC were transduced with lentivirus (SEQ ID: 1) containing the anti-PNE CAR construct (SEQ ID: 180) with the CD8 (SEQ ID: 68), IgG4 (SEQ ID: 70) and IgG4m (SEQ ID: 71) hinge domains.\nMonovalent and bivalent combinations of these switches were expressed in mammalian protein expression systems (HEK293 or CHO cells) and purified using protein-G columns. Switches were used in cytotoxicity assays at a dose titration within the range of 10 nM to 0.0001 nM. The activity of each switch combination was tested in vitro in the General cytotoxicity assays where LDH release, cytokine production and sCART cell activation were compared (FIGS. 11A-11C).\nCAR-T or target cells were incubated with 1 pM to […] of switch in FACS buffer (PBS, 1% FCS, 2 mM EDTA) for 30 minutes at 4° C. before being washed twice and then incubated with the PE-conjugated goat-anti-human kappa antibody (1:100). Cells were washed two times and analyzed using the Accuri flow cytometer (BD). CAR-T cell activity was determined using the CytoTox 96® Non-Radioactive Cytotoxicity Assay (Promega). CAR-T cells were incubated with target cells in the presence of switch for 20-24 hours at 37° C. in complete RPMI with 5% FCS. At the end of the assay, 30 μL of cell free supernatant was added to 30 μL of the LDH assay reagent in a 96-well plate and incubated for 30 minutes at room temperature in the dark; 30 μL of stop solution was added before the plate was read at OD495."}, "Nalm-6^Luc/GFP cells": {"test_system": "Nalm-6^Luc/GFP cells", "experiment": "Nalm-6 Luc/GFP leukemia xenograft", "type": "in vivo", "conditions": "short-dimeric sCAR-T cells; 0.5 mg/kg every other day from day 6", "method": "NSG mice were inoculated with CD19^+ Nalm-6^GFP/Luc cells. Six days later, 40×10^6 sCAR-T cells were delivered IV and switch dosing commenced every other day at 0.5 mg/kg for 10 days. Tumor burden was followed by luminescence after injection of luciferin and imaged on an in vivo imaging system (IVIS; PerkinElmer, Waltham, Mass., USA).\nAsterisks indicate significance from LCNT Fab group. Data are represented as means±SEM, and statistical significance was calculated using the 2-way ANOVA with Bonferroni's post-test (B & E; shown for final time-point only) or by one-tailed student's t-test (C & F) where *=p<0.05, **=p<0.01 and ***=p<0.001.\nNSG mice were inoculated with Nalm-6^GFP/Luc as described in FIG. 28. […] A fourth group consisted of two cohorts (n=3) of mice injected I.V. with sCAR-T cells without (−) LCNT Fab switch. LCNT Fab dosing in the indicated group was carried out daily at 0.5 mg/kg after the initial T cell infusion. Luminescence was measured at 6 h and subsequently every 24 h as indicated. Cohorts were sacrificed for analysis immediately following IVIS imaging. […] Gray lines indicate tumor burden in PBS and sCAR-T cell—LCNT Fab controls. […] Data are represented as means±SEM, and statistical significance was calculated using the one-tailed student's t-test (C & D) where *=p<0.05, **=p<0.01 and ***=p<0.001.\nNSG mice were inoculated with Nalm6^GFP/Luc and six days later engrafted with short-dimeric sCAR-T cells as described in FIG. 29. […] Dosing was carried out for 15 d starting at day 6 (corresponding with sCAR-T cell infusion) as indicated by gray shading. Control groups CART-19 and PBS received no switch. The NS group received sCAR-T cells but no switch. Open circles denote the death of individual mice without evidence of tumor burden and may reflect GVHD. Triangles in PBS, NS and q.a.d. group indicate death due to increasing tumor burden. […] (19) indicates CART-19. […] (19) indicates CART-19. […] Triangles indicate the death of individual mice with significant tumor burden. The single mouse death in the 0.05 mg/kg group occurred while tumor burden was decreasing. […] Statistical significance was calculated using the one-tailed student's t-test (B, C & E) where *=p<0.05, **=p<0.01 and ***=p<0.001.\nThe different sCAR designs were tested in a xenograft model harboring luciferized NALM-6 (CD19+, CD80−, CD86−) cells. 1 mg/kg monovalent switch “A” was administered along with sCAR cells. […] Optimized hinge improved response. Short hinge CARs have faster clearance. Short, dimeric hinge CARs have improved persistence. Tumor burden was visualized with IVIS imaging. Experiments are repeated with a humanized scFv and bivalent switches.\nActivity of the switchable CAR-T cell platform in vivo was evaluated via tumor regression in a Nalm-6^Luc/GFP leukemia xenograft model in immunodeficient NOD scid gamma (NSG) mice. These mice without treatment succumb to disease within 21 days. The impact of CAR hinge design on in vivo efficacy was determined using mice inoculated with Nalm-6^Luc/GFP, followed by I.V. injection of long, short, or short-dimeric sCAR-T cells 6 days later. The LCNT Fab was dosed I.V. (0.5 mg/kg) every other day for 10 days and tumor regression was followed by in vivo imaging (IVIS) of the luciferase signal from Nalm-6^Luc/GFP cells (FIG. 29A).\nThe effect of switch grafting position on the control of tumor burden was determined. As with the previous model, short-dimeric CAR-T cells were injected 6 days after tumor inoculation and mice were treated every other day (starting at day 6) with 0.5 mg/kg LCNT, HCNT, NTBV, LCC1, or HCCT Fab switches (FIG. 29D).\nTo determine the proliferation and localization of sCAR-T cell cytotoxicity during this time interval, mice were sorted into 5 cohorts per treatment regimen and analyzed at 8, 24, 48, 72, and 96 h after treatment with short-dimeric sCAR-T cells+LCNT Fab switch or with conventional CART-19 and no switch. […]"}, "RS4;11 cells": {"test_system": "RS4;11 cells", "experiment": "Cytokine release (CBA) in cytotoxicity co-culture", "type": "cell-based, human", "conditions": "1 nM switch", "method": "as §1\nCAR-T or target cells were incubated with 1 pM to […] of switch in FACS buffer (PBS, 1% FCS, 2 mM EDTA) for 30 minutes at 4° C. before being washed twice and then incubated with the PE-conjugated goat-anti-human kappa antibody (1:100). Cells were washed two times and analyzed using the Accuri flow cytometer (BD). CAR-T cell activity was determined using the CytoTox 96® Non-Radioactive Cytotoxicity Assay (Promega). […]"}, "CD33+ MOLM14 cells": {"test_system": "CD33+ MOLM14 cells", "experiment": "Cytotoxicity assay, sCAR-T cells + anti-CD33 (hP67.6) switches", "type": "cell-based", "set-up": "unit not given here", "conditions": "duplicates", "excerpt": "(§2) FIG. 38A illustrates multiple fusion/grafting locations: A=LCNT1 (light chain N terminus version 1), B=HCNT3 (heavy chain N terminus version 3), C=heavy chain C terminus, and D=light chain C terminus). […] Data shown are an average of duplicate samples, and error bars represent SD. Only the NT switches plus the BvCT and By CH1CL1 as references are depicted.\n(§3) Monovalent and bivalent combinations of these switches were expressed and tested in cytotoxicity assays at a dose titration within the range of 0.4 nM to 0.0001 nM. […] Data shown are an average of duplicate samples, and error bars represent SD. Only the NT switches plus the BvCT and By CH1CL1 as references are depicted. cytokine secretion was measured."}, "MOLM14 cell line": {"test_system": "MOLM14 cell line", "experiment": "Cytokines in cytotoxicity assay supernatant (CBA Human Th1/Th2 II Kit)", "type": "cell-based", "set-up": "unit not given here", "conditions": "duplicates", "excerpt": "as §2, §3"}}, "note": "Where “and” joins values, the source holds several entries; their conditions need not be identical. Equal entries are not always repeated. Entries after “also recorded” stand apart in the source; their conditions may differ."}
{"molecule": "anti-CD19 IgG WT: FMC63 anti-CD19 IgG with no grafted peptide (SEQ ID 27 & 28) [reference compound]", "values": [{"measurement": "cytotoxicity", "setting": "RS4;11 (CD19 positive)", "value": "did not induce significant cytotoxicity"}]}
{"molecule": "anti-CD19 Fab NTBV: FMC63 anti-CD19 Fab, peptide on N-terminus of light and heavy chain (SEQ ID 36 & 88)", "values": [{"measurement": "tumor burden (IVIS), switch graft position comparison", "setting": "Nalm-6^Luc/GFP cells", "value": "greatest reduction in tumor burden"}, {"measurement": "cytokine production", "setting": "RS4;11 cells; CD8 hinge sCAR-T", "value": "induced the greatest cytokine production; also recorded: induced the greatest IL-2 production"}, {"measurement": "increase in IL-2 production", "setting": "RS4;11 cells; CD8 sCAR-T cells", "value": 50, "unit": "%"}]}
{"molecule": "anti-CD19 Fab HCCT: FMC63 anti-CD19 Fab, peptide on C-terminus of heavy chain (SEQ ID 27 & 34)", "values": [{"measurement": "tumor burden (IVIS), switch graft position comparison", "setting": "Nalm-6^Luc/GFP cells", "value": "little control"}, {"measurement": "EC50", "setting": "RS4;11 (CD19 positive)", "value": "0.02 ± 0.0009", "unit": "nM"}]}
{"molecule": "anti-CD19 Fab WT: FMC63 anti-CD19 Fab with no grafted peptide (SEQ ID 27 & 29) [reference compound]", "values": [{"measurement": "cytotoxicity", "setting": "RS4;11 (CD19 positive)", "value": "did not induce significant cytotoxicity"}]}
{"molecule": "B1", "values": [{"measurement": "cytotoxicity (FIG. 38G)", "setting": "CD33+ MOLM14 cells; switch 0.1 pM", "value": 0}, {"measurement": "cytotoxicity (FIG. 38G)", "setting": "CD33+ MOLM14 cells; switch 3.2 pM", "value": "10.3 and 8.3"}, {"measurement": "cytotoxicity (FIG. 38G)", "setting": "CD33+ MOLM14 cells; switch 16 pM", "value": "47.8 and 45.5"}, {"measurement": "cytotoxicity (FIG. 38G)", "setting": "CD33+ MOLM14 cells; switch 80 pM", "value": "65 and 64.4"}, {"measurement": "cytotoxicity (FIG. 38G)", "setting": "CD33+ MOLM14 cells; switch 400 pM", "value": "69.4 and 70.2"}, {"measurement": "IFNg in supernatant (FIG. 38H)", "setting": "MOLM14 cell line", "value": "1037.59 and 876.36"}, {"measurement": "Il-2 in supernatant (FIG. 38H)", "setting": "MOLM14 cell line", "value": "861.13 and 653"}, {"measurement": "TNFa in supernatant (FIG. 38H)", "setting": "MOLM14 cell line", "value": "114.13 and 87.74"}]}
